Assay results reported in paper PMC7764042, “Interferon Beta Activity Is Modulated via Binding of Specific S100 Proteins” (International Journal of Molecular Sciences, 2020).

target: T1, recombinant human interferon beta-1a (human, UniProt P01574 22-187); test: SPR; IFN-β immobilised on ProteOn GLH chip by amine coupling; Ca^2+-loaded S100 as analyte (0.25–5 µM S100A1, 0.5–5 µM S100A4/A6, 5 µM other S100); 25 °C; 10 mM HEPES, 150 mM NaCl, 0.01% TWEEN 20, pH 7.4, 1 mM CaCl2; heterogeneous ligand model; conditions: both partners purified
T1 construct: human interferon beta (interferon beta-1a), UniProt P01574; Pharmaceutical interferon beta-1a; also called IFN-β; Interferon-β; source: bought: Merck (Rebif), produced in CHO-K1 cells

Binder | Kd [µM]
recombinant human S100A7 (natural protein, UniProt P31151 1-101, looked up, human S100A7, Swiss-Prot P31151, gene cloned into pHUE between SacII and HindIII; Made as a ubiquitin-S100 chimera and cut with Usp2; also called S10A7; source: E. coli BL21(DE3)-RIL, purified (IMAC, Usp2 cleavage, anion exchange, gel filtration)) MSNTQAERSIIGMIDMFHKYTRRDDKIEKPSLLTMMKENFPNFLSACDKKGTNYLADVFEKKDKNEDKKIDFSEFLSLLGDIATDYHKQSHGAAPCSGGSQ | ≥ 10
recombinant human S100A15 (S100A7A) (natural protein, UniProt Q86SG5 1-101, looked up, human S100A15 (S100A7A), Swiss-Prot Q86SG5, gene cloned into pHUE between SacII and HindIII; Made as a ubiquitin-S100 chimera and cut with Usp2; also called A1A7A; source: E. coli BL21(DE3)-RIL, purified (IMAC, Usp2 cleavage, anion exchange, gel filtration)) MSNTQAERSIIGMIDMFHKYTGRDGKIEKPSLLTMMKENFPNFLSACDKKGIHYLATVFEKKDKNEDKKIDFSEFLSLLGDIAADYHKQSHGAAPCSGGSQ | ≥ 10
recombinant human S100A8 (natural protein, UniProt P05109 1-93, looked up, human S100A8, Swiss-Prot P05109, gene cloned into pHUE between SacII and HindIII; Made as a ubiquitin-S100 chimera and cut with Usp2; also called S10A8; source: E. coli BL21(DE3)-RIL, purified (IMAC, Usp2 cleavage, anion exchange, gel filtration)) MLTELEKALNSIIDVYHKYSLIKGNFHAVYRDDLKKLLETECPQYIRKKGADVWFKELDINTDGAVNFQEFLILVIKMGVAAHKKSHEESHKE | ≥ 10
recombinant human S100A9 (natural protein, UniProt P06702 1-114, looked up, human S100A9, Swiss-Prot P06702, gene cloned into pET-11a between NdeI and BamHI; also called S10A9; source: E. coli BL21(DE3)pLysS, purified (ammonium sulfate, anion exchange, cation exchange, gel filtration)) MTCKMSQLERNIETIINTFHQYSVKLGHPDTLNQGEFKELVRKDLQNFLKKENKNEKVIEHIMEDLDTNADKQLSFEEFIMLMARLTWASHEKMHEGDEGPGHHHKPGLGEGTP | ≥ 10
recombinant human S100A11 (natural protein, UniProt P31949 1-105, looked up, human S100A11, Swiss-Prot P31949, gene cloned into pHUE between SacII and HindIII; Made as a ubiquitin-S100 chimera and cut with Usp2; also called S10AB; source: E. coli BL21 (DE3) with pLacIRARE, purified (IMAC, Usp2 cleavage, anion exchange, gel filtration)) MAKISSPTETERCIESLIAVFQKYAGKDGYNYTLSKTEFLSFMNTELAAFTKNQKDPGVLDRMMKKLDTNSDGQLDFSEFLNLIGGLAMACHDSFLKAVPSQKRT | ≥ 10
recombinant human S100A12 (natural protein, UniProt P80511 1-92, looked up, human S100A12, Swiss-Prot P80511, gene cloned into pHUE between SacII and HindIII; Made as a ubiquitin-S100 chimera and cut with Usp2; also called S10AC; source: E. coli BL21 (DE3) with pLacIRARE, purified (IMAC, Usp2 cleavage, anion exchange, gel filtration)) MTKLEEHLEGIVNIFHQYSVRKGHFDTLSKGELKQLLTKELANTIKNIKDKAVIDEIFQGLDANQDEQVDFQEFISLVAIALKAAHYHTHKE | ≥ 10
recombinant human S100A13 (natural protein, UniProt Q99584 1-98, looked up, human S100A13, Swiss-Prot Q99584, gene cloned into pET-11a between NdeI and BamHI; also called S10AD) MAAEPLTELEESIETVVTTFFTFARQEGRKDSLSVNEFKELVTQQLPHLLKDVGSLDEKMKSLDVNQDSELKFNEYWRLIGELAKEIRKKKDLKIRKK | ≥ 10
recombinant human S100A14 (natural protein, UniProt Q9HCY8 1-104, looked up, human S100A14, Swiss-Prot Q9HCY8, gene cloned into pHUE between SacII and HindIII; Made as a ubiquitin-S100 chimera and cut with Usp2; also called S10AE; source: E. coli BL21(DE3)-RIL, purified (IMAC, Usp2 cleavage, second IMAC, gel filtration)) MGQCRSANAEDAQEFSDVERAIETLIKNFHQYSVEGGKETLTPSELRDLVTQQLPHLMPSNCGLEEKIANLGSCNDSKLEFRSFWELIGEAAKSVKLERPVRGH | ≥ 10

Target: the molecule itself
Test: SPR; estimate from the SPR data for 0.5 µM S100 analyte on immobilised IFN-β, 1 mM CaCl2; dimer to monomers, Ca^2+-loaded S100
Conditions: not given

Binder | Kd [µM]
recombinant human S100A1 (natural protein, human S100A1, Swiss-Prot P23297, gene cloned into pHUE between SacII and HindIII; Made as a ubiquitin-S100 chimera and cut with Usp2; also called S10A1; source: E. coli BL21 (DE3) with pLacIRARE, purified (IMAC, Usp2 cleavage, anion exchange, gel filtration)) GSELETAMETLINVFHAHSGKEGDKYKLSKKELKELLQTELSGFLDAQKDVDAVDKVMKELDENGDGEVDFQEYVVLVAALTVACNNFFWENS | ≤ 0.5
recombinant human S100A4 (natural protein, human S100A4, Swiss-Prot P26447, gene cloned into pHUE between SacII and HindIII; Made as a ubiquitin-S100 chimera and cut with Usp2; also called S10A4; source: E. coli BL21 (DE3) with pLacIRARE, purified (IMAC, Usp2 cleavage, anion exchange, gel filtration)) not shown | ≤ 0.5
